Assay results as given in article PMC7935764 (Structure (London, England : 1993), 2020).

Key:
[1] = biological target: IN CCD^F185K (HIV-1 (NL4-3)); experiment: AUC
[2] = biological target: HIV integrase CTD CTD (Human immunodeficiency virus 1) (UniProt O93215); experiment: NMR; conditions: cited from earlier work
[3] = biological target: HIV-1 integrase IN^F185H,L242A (HIV-1 (NL4-3)); experiment: SEC-MALS
[4] = biological target: HIV-1 integrase IN^F185H,L242A (HIV-1 (NL4-3)); experiment: AUC
[5] = biological target: IN CCD^F185K (HIV-1 (NL4-3)); experiment: SEC-MALS + AUC + other: SEC-SAXS
SEC-MALS = biological target: the molecule itself; experiment: SEC-MALS
SEC-SAXS = biological target: the molecule itself; experiment: SEC-SAXS

## HFS-IN(CTD)^220-280(L242A) (from UniProt P12497 221-281) (domain or fragment)
[1]
  KD without BI-224436: > 1000 µM

## HIV integrase CTD CTD (from UniProt O93215)
[2]
  Kd: 1 µM

## HIV-1 integrase IN^F185H,L242A (enzyme)
[3]
  stoichiometry N: 2
[4]
  stoichiometry N: 2

## IN CCD^F185K (domain or fragment)
[5]
  stoichiometry N: 2

B1: His6-FLAG-SUMO (HFS)-tagged CTD^220-270, wild type (domain or fragment)
chain: IQNFRVYYRDSRDPVWKGPAKLLWKGEGAVVIQDNSDIKVVPRRKAKIIRD
SEC-MALS
  stoichiometry N: 2

B2: CTD^220-270 (domain or fragment)
chain: IQNFRVYYRDSRDPVWKGPAKLLWKGEGAVVIQDNSDIKVVPRRKAKIIRD
SEC-SAXS
  stoichiometry N: 2
